From patent publication US20130331325A1 (NEW YORK UNIVERSITY, published 2013)

Legend:
[1] = biological target: T1, binary complex of FGFR1c ligand-binding domain with αKlotho ectodomain (murine; human, UniProt P11362 142-365); test: SPR competition: increasing chimera with a fixed concentration of αKlotho-FGFR1c complex over immobilized FGF23 (competitor)
T1 construct: range 142-365; also called αKlotho-FGFR1c complex; binary αKlotho-FGFR1c complex; not shown: C-terminal FLAG tag
T1 sequence 1: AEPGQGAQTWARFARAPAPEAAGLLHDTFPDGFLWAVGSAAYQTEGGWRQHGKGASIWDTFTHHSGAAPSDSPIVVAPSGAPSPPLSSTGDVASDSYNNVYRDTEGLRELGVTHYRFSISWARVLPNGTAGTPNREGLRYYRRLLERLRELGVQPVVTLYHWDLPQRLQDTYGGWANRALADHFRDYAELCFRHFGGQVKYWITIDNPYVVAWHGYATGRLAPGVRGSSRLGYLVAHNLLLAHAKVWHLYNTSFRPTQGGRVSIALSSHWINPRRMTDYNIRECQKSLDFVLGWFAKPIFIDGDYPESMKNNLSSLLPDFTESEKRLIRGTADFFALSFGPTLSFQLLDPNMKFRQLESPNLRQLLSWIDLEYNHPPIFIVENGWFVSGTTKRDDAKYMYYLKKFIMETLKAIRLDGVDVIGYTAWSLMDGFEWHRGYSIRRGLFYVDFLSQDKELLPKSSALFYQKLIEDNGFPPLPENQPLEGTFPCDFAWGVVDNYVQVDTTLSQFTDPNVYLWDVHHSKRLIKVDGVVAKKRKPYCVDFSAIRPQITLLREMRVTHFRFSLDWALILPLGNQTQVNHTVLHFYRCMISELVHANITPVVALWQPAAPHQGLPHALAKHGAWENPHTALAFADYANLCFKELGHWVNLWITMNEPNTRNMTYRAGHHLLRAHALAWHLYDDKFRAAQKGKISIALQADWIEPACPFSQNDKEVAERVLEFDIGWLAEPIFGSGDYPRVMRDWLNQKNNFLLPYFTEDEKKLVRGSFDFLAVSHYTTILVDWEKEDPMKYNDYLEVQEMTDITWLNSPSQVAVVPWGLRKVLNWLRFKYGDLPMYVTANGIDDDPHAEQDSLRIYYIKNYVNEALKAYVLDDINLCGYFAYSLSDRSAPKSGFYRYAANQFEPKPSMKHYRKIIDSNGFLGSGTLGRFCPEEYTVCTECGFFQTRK
T1 sequence 2: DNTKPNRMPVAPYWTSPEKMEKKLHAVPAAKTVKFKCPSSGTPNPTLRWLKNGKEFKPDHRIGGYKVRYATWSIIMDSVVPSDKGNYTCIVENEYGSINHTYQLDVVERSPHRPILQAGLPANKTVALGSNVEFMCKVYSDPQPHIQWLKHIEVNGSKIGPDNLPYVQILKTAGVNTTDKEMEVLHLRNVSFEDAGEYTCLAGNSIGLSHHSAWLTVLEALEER
Description: FIGS. 7A and 7B show overlays of SPR sensorgrams illustrating inhibition by FGF2^ΔHBScore-FGF23^C-tail (FIG. 7A) or FGF23 (FIG. 7B) of αKlotho-FGFR1c binding to FGF23 immobilized on a biosensor chip. Increasing concentrations of FGF2^ΔHBScore-FGF23^C-tail or FGF23 were mixed with a fixed concentration of αKlotho-FGFR1c complex, and the mixtures were passed over a FGF23 chip. […] FGF2 and αKlotho-FGFR1c complex were mixed at a molar ratio of 15:1, and the mixture was passed over a biosensor chip containing immobilized FGF23. FIGS. 7D and 7E show overlays of SPR sensorgrams illustrating no inhibition by FGF2^ΔHBScore-FGF23^C-tail (FIG. 7D) or FGF23 (FIG. 7E) of βKlotho-FGFR1c binding to FGF21. FGF2^ΔHBScore-FGF23^C-tail or FGF23 were mixed with βKlotho-FGFR1c complex at a molar ratio of 10:1, and the mixtures were passed over a biosensor chip containing immobilized FGF21. […] Wild-type mice and αKlotho knockout mice were given 0.21 mg and 0.51 mg of protein, respectively, per kg of body weight. Data are presented as mean±SEM; **, P<0.01; ***, P<0.001 by ANOVA. […]
To determine whether the FGF2^ΔHBScore-FGF23^C-tail and FGF2^ΔHBScore-FGF21^C-tail chimeras gained the ability to signal in a Klotho co-receptor-dependent, endocrine fashion, it was first analyzed whether these chimeras can form ternary complexes with FGFR1c and Klotho co-receptor. […]

[2] = biological target: T2, ligand-binding domain of human FGFR1c (D142 to R365) (human, UniProt P11362 142-365); test: SPR: FGFR1c ligand-binding domain over immobilized FGF21 (FIG. 10C)
T2 construct: range 142-365
T2 sequence (looked up): T1 sequence 2
Description: (§1) FIGS. 10A-10D show overlays of SPR sensorgrams illustrating binding of FGFR1c to FGF2 (FIG. 10A), FGF19 (FIG. 10B), FGF21 (FIG. 10C), and FGF23 (FIG. 10D), and fitted saturation binding curves. Increasing concentrations of FGFR1c ligand-binding domain were passed over a biosensor chip containing immobilized FGF2, FGF19, FGF21, or FGF23. […] Increasing concentrations of αKlotho-FGFR1c complex were passed over a biosensor chip containing immobilized FGF23. […] FGF23^C-tail was immobilized on a biosensor chip and increasing concentrations of FGFR1c ligand-binding domain were passed over the chip. Dissociation constants (KDs) given in FIGS. 10A-10E were derived from the saturation binding curves.

[3] = biological target: T3, ligand-binding domain of human FGFR1c (D142 to R365) (human, UniProt P11362 142-365); test: SPR
T3 chain: T1 sequence 2

[4] = biological target: T4, binary complex of FGFR1c ligand-binding domain with αKlotho ectodomain (human, UniProt P11362 142-365); test: SPR
T4 chain 1: T1 sequence 1
T4 chain 2: T1 sequence 2

[5] = biological target: T1, binary complex of FGFR1c ligand-binding …; test: SPR: immobilized FGF23; αKlotho-FGFR1c complex (FIG. 10E) against FGFR1c ligand-binding domain alone (FIG. 10D)
Description: as §1
In the target tissue, Klotho co-receptors constitutively associate with cognate receptors of endocrine FGFs to offset the inherently low receptor-binding affinity of endocrine FGFs (FIGS. 10B-10D; Kurosu et al., J. Biol. Chem. 282:26687-26695 (2007); Kurosu et al., J. Biol. Chem. 281:6120-6123 (2006); Ogawa et al., Proc. Nat'l. Acad. Sci. U.S.A. 104:7432-7437 (2007); Urakawa et al., Nature 444:770-774 (2006), which are hereby incorporated by reference in their entirety). […]

[6] = biological target: T2, ligand-binding domain of human FGFR1c …; test: SPR: FGF23^C-tail immobilized on chip, increasing concentrations of FGFR1c ligand-binding domain passed over (FIG. 10F)
Description: as §1

B1: FGF2^ΔHBScore-FGF23^C-tail chimera (designed binder)
chain: MAAGSITTLPALPEDGGSGAFPPGHFKDPKRLYCKNGGFFLRIHPDGRVDGVREKSDPHIKLQLQAEERGVVSIKGVSANRYLAMKEDGRLLASKSVTDECFFFERLESNNYNTYRSRKYTSWYVALDQTGQYVLGSKTGPGQKAILFLPMRNEIPLIHFNTPIPRQHTQSAEDDSERDPLNVLKPRARMTPAPASCSQELPSAEDNSPMASDPLGVVRGGRVNTHAGGTGPEGCRPFAKFI
notes: Core domain of FGF2 (M1 to M151, K128D/R129Q/K134V, C78S/C96S) joined to the C-terminal region of FGF23 (R161 to I251, R176Q/R179Q)
[1]
  binding result: binds

B2: N-terminally hexahistidine-tagged, mature form of human FGF21 (H29 to S209) (ligand)
chain: HPIPDSSPLLQFGGQVRQRYLYTDDAQQTEAHLEIREDGTVGGAADQSPESLLQLKALKPGVIQILGVKTSRFLCQRPDGALYGSLHFDPEACSFRELLLEDGYNVYQSEAHGLPLHLPGNKSPHRDPAPRGPARFLPLPGLPPALPEPPGILAPQPPDVGSSDPLSMVGPSQGRSPSYAS
notes: also called native FGF21; not shown: N-terminal hexahistidine tag
[2]
  binding result: binds
[3]
  Kd: 2520 nM

B3: N-terminally hexahistidine-tagged, mature form of human FGF23 (Y25 to I251) with arginines 176 and 179 replaced with glutamine (ligand)
chain: YPNASPLLGSSWGGLIHLYTATARNSYHLQIHKNGHVDGAPHQTIYSALMIRSEDAGFVVITGVMSRRYLCMDFRGNIFGSHYFDPENCRFQHQTLENGYDVYHSPQYHFLVSLGRAKRAFLPGMNPPPYSQFLSRRNEIPLIHFNTPIPRQHTQSAEDDSERDPLNVLKPRARMTPAPASCSQELPSAEDNSPMASDPLGVVRGGRVNTHAGGTGPEGCRPFAKFI
notes: also called native FGF23; wild-type FGF23; not shown: N-terminal hexahistidine tag
[4]
  Kd: 27.4 nM
[3]
  Kd: 648 nM
[5]
  fold enhancement of the affinity of FGF23 for FGFR1c by αKlotho (against FGFR1c alone): > 20 fold

B4: N-terminally hexahistidine-tagged C-terminal tail peptide of FGF23 (S180 to I251) (peptide)
peptide: SAEDDSERDPLNVLKPRARMTPAPASCSQELPSAEDNSPMASDPLGVVRGGRVNTHAGGTGPEGCRPFAKFI
notes: also called FGF23^C-tail; not shown: N-terminal hexahistidine tag
[6]
  binding result: no binding
